The source of these data is patent publication US7122636.

Read-outs that look alike come from different tables or passages of the source.

For test [1], the target named is T1, recombinant human IL-8, (ser-IL-8)72 (human, UniProt P10145 28-99).
T1 construct: mature; also called human wild type IL-8; HuIL-8
T1 sequence (looked up): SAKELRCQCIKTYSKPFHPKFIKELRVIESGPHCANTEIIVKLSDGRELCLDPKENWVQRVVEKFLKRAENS
Put plainly: 125I-IL-8 binding to human neutrophils, competition; against the chimeric F(ab).

The target in test [2] is T1, recombinant human IL-8, (ser-IL-8)72. Put plainly: 125I-IL-8 binding to human neutrophils, competition.
The target is the same in test [3]. The description is as above. This is another data set of the same source.
Test [4] shares this target. Put plainly: 125I-IL-8 binding to human neutrophils, competition; against F(ab)-1.
For test [5] the target is unchanged. Put plainly: cell-based or functional assay.
The next test addresses T2, PF4 (UniProt P02776 32-101).
T2 construct: also called platelet factor 4
T2 sequence (looked up): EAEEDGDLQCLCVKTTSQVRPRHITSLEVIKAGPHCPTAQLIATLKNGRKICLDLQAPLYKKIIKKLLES
Description: cross reactivity test.

For a further test, the target named is T3, β-TG (UniProt P02775 48-128).
T3 construct: also called b-TG
T3 sequence (looked up): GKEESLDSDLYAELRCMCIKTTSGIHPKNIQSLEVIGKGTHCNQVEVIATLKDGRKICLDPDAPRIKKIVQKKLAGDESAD
Description: cross reactivity test.

B1: humanized 6G425 F(ab)-1 (Fab, V domains shown)
VH: EVQLVESGGGLVQPGGSLRLSCAASGYSFSSHYMHWVRQAPGKGLEWVGYIDPSNGETTYNQKFKGRFTISRDNSKNTLYLQMNSLRAEDTAVYYCAARGDYRYNGDWFFDVWGQGT
VL: DIQMTQSPSSLSASVGDRVTITCRSSQSLVHGIGNTYLHWYQQKPGKAPKLLIYYKVSNRFSGVPSRFSGSGSGTDFTLTISSLQPEDFATYYCSQSTHVPLTFGQGTKVEIKR
notes: Fab with human kappa I and human IgG1 CH1 constant domains; also called version 1; V1
With B1, the “fold reduction in binding affinity” value in test [1] is 5.5 fold. In addition, the values for the concentration for half-maximal inhibition (IC50) in test [2] and in test [3] were 40 nM and 63 nM, respectively.

B2: humanized 6G425 F(ab)-3 (Fab, V domains shown)
VH: EVQLVESGGGLVQPGGSLRLSCAASGYSFSSHYMHWVRQAPGKGLEWVGYIDPSNGETTYNQKFKGRFTISVDNSKNTLYLQMNSLRAEDTAVYYCAARGDYRYNGDWFFDVWGQGT
VL: DIQMTQSPSSLSASVGDRVTITCRSSQSLVHGIGNTYLHWYQQKPGKAPKLLIYYKVSNRFSGVPSRFSGSGSGTDFTLTISSLQPEDFATYYCSQSTHVPLTFGQGTKVEIKR
notes: template F(ab)-1; also called version 3
As for B2, the “fold decrease in IL-8 binding” value in test [4] is less than 2 fold. The IC50 in test [3] stood at 79.8 nM.

B3: humanized 6G425 F(ab)-2 (Fab, V domains shown)
VH: EVQLVESGGGLVQPGGSLRLSCAASGYSFSSHYMHWVRQAPGKGLEWVGYIDPSNGETTYNQKFKGRATISRDNSKNTLYLQMNSLRAEDTAVYYCAARGDYRYNGDWFFDVWGQGT
VL: DIQMTQSPSSLSASVGDRVTITCRSSQSLVHGIGNTYLHWYQQKPGKAPKLLIYYKVSNRFSGVPSRFSGSGSGTDFTLTISSLQPEDFATYYCSQSTHVPLTFGQGTKVEIKR
notes: template F(ab)-1; also called version 2
On to B3, for which the “fold decrease in IL-8 binding” value in test [4] is less than 2 fold. Further, the 50% inhibitory concentration (IC50) in test [3] came to 106 nM.

B4: 6G4V11N35A Fab (Fab, V domains shown)
VH: EVQLVQSGGGLVQPGGSLRLSCAASGYSFSSHYMHWVRQAPGKGLEWVGYIDPSNGETTYNQKFKGRFTLSRDNSKNTAYLQMNSLRAEDTAVYYCARGDYRYNGDWFFDVWGQGTLVTVSS
VL: DIQMTQSPSSLSASVGDRVTITCRSSQSLVHGIGATYLHWYQQKPGKAPKLLIYKVSNRFSGVPSRFSGSGSGTDFTLTISSLQPEDFATYYCSQSTHVPLTFGQGTKVEIKR
As for B4, the “IC50, neutrophil chemotaxis” value in test [5] was 2.7 nM.

B5: anti-IL-8 monoclonal antibody 5.12.14 (antibody, mouse IgG2a, V domains shown)
VH: EVQLVESGGGLVPPGGSLKLSCAASGFIFSSYGMSWVRQTPGKSLELVATINNNGDSTYYPDSVKGRFTISRDNAKNTLYLQMSSLKSEDTAMFYCARALISSATWFGYWGQGTLVTVSA
VL: DIVMTQSQKFMSTSVGDRVSVTCKASQNVGTNVAWYQQKPGQSPKALIYSSSYRYSGVPDRFTGSGSGTDFTLTISHVQSEDLADYFCQQYNIYPLTFGPGTKLELKR
notes: mouse IgG2a from hybridoma ATCC HB 11553
As for B5, the binding result with PF4 and in the test with β-TG was “no binding” throughout.
